B1: NP14b (structured_DNA)
DNA: TTTTTAACACGACTCTCCTGTGGCCAGCGAACTGATGTGCCATG
B2: NP14 (structured_DNA)
DNA: TTTTTAACACGACTCTCCTGTGGCCAGCGAACTGATTGCCTGTCGTGCCATG
B3: NP11 (ssDNA)
DNA: TTTTTAAGCCCACTTTTCTGTGCCGGGCACAGCATGGGCTTGTCGTGCCATG
B4: NP14a (structured_DNA)
DNA: TTTTTAACACGACTCTCCTGTGGCATTGCCTGTCGTGCCATG
B5: NP1 (ssDNA)
DNA: TTTTTAACACGACCTCACTGTGCCGGCCACAGCTCACCACAGTGGGCCCATG

What was measured:
SARS-CoV N protein = SARS-CoV N protein (SARS-CoV, UniProt P59595 1-422); conditions: protein: commercial, chain copies: 2
[1] = molecular target: T1, SARS-CoV-2 nucleocapsid (N) protein (SARS-CoV-2 (original/prototype), UniProt P0DTC9 1-419); assay: ELONA; conditions: protein: recombinant; tags: His; chain copies: 2; label: biotin (ELONA); 5'-FAM (flow cytometry, confocal)
[2] = molecular target: T1, SARS-CoV-2 nucleocapsid (N) protein; assay: SPR; single concentration; conditions: protein: recombinant; tags: His; chain copies: 2

| Binder | binding result (SARS-CoV N protein) | binding result [2] | further results |
| --- | --- | --- | --- |
| B1 | binds |  |  |
| B2 |  |  | Kd [1]: 3.68 nM; Kd (SARS-CoV N protein; label: biotin (ELONA), 5'-FAM (flow cytometry, confocal)): 3.45 nM |
| B3 |  | binds |  |
| B4 | binds |  |  |
| B5 |  | binds |  |

— publication PMC12886537, “Dual-mode aptamer-driven biosensing platform for ultrasensitive and mutation-resilient detection of the SARS-CoV-2 nucleocapsid protein”
